Results from the supplement of paper PMC9732359.
± gives the uncertainty stated by the source.

Assay: protein stability index of a GFP-peptide fusion (yeast GPS) (PSI 1-4); higher = more stable; sorted into four equal gates, so the index is relative within each strain
How it was run: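 Tiled yeast protein peptides of 17 residues were each joined downstream of GFP, on plasmids that also express Cherry. The pooled library was maintained in yeast, and mid-log cultures in leucine-free medium were sorted into four equal gates on the GFP/Cherry ratio. Plasmids from every gate were amplified by PCR and sequenced on Illumina, with barcodes linking reads to strains. The protein stability index of a peptide is its gate-number-weighted read frequency summed over the gates.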

Row | Sequence | protein stability index (doa10∆) | protein stability index (pdr5∆) | protein stability index (san1∆) | protein stability index (ubr1∆)
1 | EPQGAVTHMDQIFVRGS [SMD3] | 2.64 ± 0.11 | 2.77 ± 0.07 | 2.62 ± 0.099 | 2.56 ± 0.11
2 | ENPNFWRQFGNRMQISP [GRR1] | 3.14 ± 0.13 | 3.02 ± 0.13 | 2.93 ± 0.11 | 2.76 ± 0.12
3 | MANKEWRVREASTSALL [ECM29] | – | – | – | 2.26 ± 0.2
4 | ENVILGQMAPIGTGAFD [RPO21] | 2.33 ± 0.11 | 2.37 ± 0.13 | 2.36 ± 0.12 | 2.54 ± 0.056
5 | TKVLNMKPSEILSLIEE [SMC2] | 2.86 ± 0.23 | 3.3 ± 0.17 | 3 ± 0.24 | 2.9 ± 0.11
6 | GGLSGEESIKIYPLIKP [UBP6] | 2.48 ± 0.12 | 2.68 ± 0.076 | 1.88 ± 0.15 | 2.16 ± 0.09
7 | GRRLSMLASQANGGSTI [DSN1] | 2.1 ± 0.057 | 2.7 ± 0.074 | 2.42 ± 0.071 | 2.29 ± 0.047
8 | NGSEKVLIAQERSAGNI [RPB2] | 3.1 ± 0.17 | 3.44 ± 0.21 | 3.12 ± 0.12 | 3.06 ± 0.061
9 | SAKEIAKASGCDDESGD [MCD1] | 2.19 ± 0.094 | 1.8 ± 0.15 | 2.62 ± 0.12 | 2.86 ± 0.14
10 | EVSGENVVEADLKRFVD [QCR2] | 3.31 ± 0.19 | 3.25 ± 0.13 | 3.36 ± 0.058 | 3.66 ± 0.067
11 | NFLLPDIFGDSELFDEW [ISW2] | 2.25 ± 0.059 | 2.46 ± 0.076 | 2.79 ± 0.07 | 2.72 ± 0.059
12 | IAVLRSKEWFQLDDEDF [FAS1] | 2.03 ± 0.041 | 2.09 ± 0.041 | 1.81 ± 0.058 | 2.32 ± 0.038
13 | DLVIVDENELKKSEEKL [MTW1] | 3.51 ± 0.19 | – | – | –
14 | QQAQARLQQGRRLPMTM [SNF2] | 3.1 ± 0.065 | 3.15 ± 0.055 | 3.24 ± 0.035 | 3.22 ± 0.048
15 | NKDASLALQRGATVFVN [DPB4] | 2.61 ± 0.099 | 2.29 ± 0.072 | 2.88 ± 0.067 | 2.32 ± 0.083
16 | GAAFKVISNLVPKLESS [YJL039C/NUP192] | 2.86 ± 0.16 | 2.59 ± 0.11 | 2.58 ± 0.24 | 2.18 ± 0.12
17 | LKNPEIFQRVGIKPPKG [RPT4] | 2.13 ± 0.12 | 2.18 ± 0.22 | 2.45 ± 0.12 | 2.31 ± 0.18
18 | NAARKAEASGEAAEEAE [RPS9B] | 3.81 ± 0.29 | 3.39 ± 0.24 | – | 2.89 ± 0.28
19 | ADEPVKASLLLHVLVAH [FAS2] | 1.85 ± 0.043 | 1.59 ± 0.035 | 1.3 ± 0.059 | 1.43 ± 0.028

Row | Sequence | protein stability index (doa10∆) | protein stability index (pdr5∆) | protein stability index (san1∆) | protein stability index (ubr1∆)
20 | TKLGFTFTIKEFVSYYY [SNU114] | 1.88 ± 0.054 | 2.02 ± 0.054 | 1.73 ± 0.067 | 1.76 ± 0.041
21 | VMNKNQETAISVAKLFK [RPT6] | 2.24 ± 0.19 | 1.72 ± 0.19 | – | –
22 | GVEYRLRLRISRKRNEE [RPL31A] | 1.5 ± 0.12 | 1.26 ± 0.12 | – | 1.18 ± 0.22
23 | IDKLMLSPSDQFAPAFL [SSN2] | 1.99 ± 0.068 | 2.24 ± 0.1 | 2.1 ± 0.13 | 2.5 ± 0.09
24 | IDEHIDLGIKYDPSIGI [RPL11A] | 2.84 ± 0.035 | 3.06 ± 0.039 | 2.91 ± 0.03 | 2.903 ± 0.029
25 | LTVSIKIALMNIPKPLN [RGR1] | 1.19 ± 0.044 | 1.43 ± 0.057 | 1.54 ± 0.059 | 1.66 ± 0.032
26 | SGLPTCDYYNTFLLNNK [RPN2] | 2.94 ± 0.069 | 2.96 ± 0.071 | 2.68 ± 0.062 | 2.51 ± 0.069
27 | IPSLANNGNNSTSIQYH [POP6] | 2.45 ± 0.054 | 2.95 ± 0.06 | 2.47 ± 0.066 | 2.59 ± 0.046
28 | MLWGGASMLGLFVFTEG [QCR10] | 1.96 ± 0.14 | 1.82 ± 0.11 | 2.43 ± 0.26 | 3.19 ± 0.2
29 | GRIRTTREDVSPHYNSQ [SSN3] | 1.81 ± 0.067 | 2.02 ± 0.091 | 1.89 ± 0.07 | 1.73 ± 0.11
30 | HTVFTSVNKNKRQAYAV [RPL4A] | – | 1.17 ± 0.2 | – | –
31 | MYQMITMGGNAELELVD [SMC4] | 2.81 ± 0.074 | 2.47 ± 0.1 | 2.6 ± 0.08 | 2.54 ± 0.072
32 | VLTYPEKVTRYNRHKLQ [RPO31] | 2.1 ± 0.055 | 1.6 ± 0.048 | 2.32 ± 0.052 | 1.43 ± 0.05
33 | SQQAGLDPYERAIYSYL [YDL116W/NUP84] | 2.81 ± 0.12 | 3.19 ± 0.083 | – | 2.83 ± 0.099
34 | APLKHGVGILYKGMASN [BRR2] | 1.93 ± 0.078 | 1.68 ± 0.076 | 1.38 ± 0.13 | 1.3 ± 0.11
35 | ANRVTDKLTRVHDKIWC [PRE3] | 2 ± 0.12 | 2.42 ± 0.085 | 2.38 ± 0.063 | 2.34 ± 0.095
36 | MVNSHGIRYIRLKQVFN [NNF1] | 1.46 ± 0.048 | 1.67 ± 0.04 | 1.88 ± 0.19 | 1.81 ± 0.052
37 | NLLKVSVDICNNSKSRY [ECM29] | 2.04 ± 0.07 | 2.2 ± 0.066 | 2.9 ± 0.052 | 2.02 ± 0.054
38 | TDRESYPRLQDPSRELN [YCS4] | 3.14 ± 0.05 | 3.19 ± 0.043 | 3.23 ± 0.034 | 3.09 ± 0.052

Row | Sequence | protein stability index (doa10∆) | protein stability index (pdr5∆) | protein stability index (san1∆) | protein stability index (ubr1∆)
39 | PDFKPWEHTAAEDQILA [SRB8] | 2.83 ± 0.12 | 2.95 ± 0.12 | 3.03 ± 0.075 | 3.02 ± 0.091
40 | MSAPTMRSTSILTEHLG [MTW1] | – | – | 2.87 ± 0.24 | –
41 | WKLLNQLVLRGLLSQAI [YJR042W/NUP85] | 2.01 ± 0.18 | 1.3 ± 0.076 | 1.28 ± 0.11 | 1.17 ± 0.1
42 | PESIDTILSSKLSNIWM [SRB2] | 2.72 ± 0.08 | 2.78 ± 0.095 | 2.92 ± 0.054 | 2.91 ± 0.042
43 | DTRFGGRMDMTRLYDYE [SSN2] | 3.14 ± 0.1 | 3.23 ± 0.081 | 3.47 ± 0.045 | 3.21 ± 0.061
44 | VRYTTSVMPPNEVYSAY [DLS1] | 2.83 ± 0.062 | 3.12 ± 0.069 | 2.48 ± 0.059 | 2.9 ± 0.061
45 | GQLISLLFEDLFKKFNN [RET1] | 3.1 ± 0.17 | 3.22 ± 0.23 | 3.34 ± 0.15 | –
46 | MNLVLNECIEERVPKTQ [SMB1] | 2.3 ± 0.23 | – | – | –
47 | KYNRYEKRHKNVPVHVS [RPS11A] | 1.61 ± 0.041 | 1.66 ± 0.044 | 1.69 ± 0.092 | 1.94 ± 0.055
48 | NYYYLFDKKSFFNGKAL [PRP8] | 2.55 ± 0.046 | 2.16 ± 0.043 | 2.91 ± 0.055 | 2.38 ± 0.037
49 | SDEVSRGIPRLSEDELR [SMC4] | 3.43 ± 0.14 | 3.69 ± 0.21 | 3.39 ± 0.14 | 3.58 ± 0.1
50 | KERSIVVGRTTRSNPPF [REC8] | 2.7 ± 0.055 | 2.7 ± 0.057 | 2.57 ± 0.081 | 2.65 ± 0.065
51 | SRRWRQRKNIQSLELMI [BRR2] | 1.39 ± 0.096 | 1.88 ± 0.073 | 2.15 ± 0.15 | 1.29 ± 0.057
52 | AHTPMLQMYSKIRRHPN [FAS1] | 2.81 ± 0.051 | 3.03 ± 0.063 | 2.96 ± 0.06 | 2.95 ± 0.048
53 | HNVFSKEQTIQLPSKFT [RPN14] | 2.41 ± 0.11 | 2.79 ± 0.085 | 2.43 ± 0.12 | 2.64 ± 0.099
54 | NVDQTKTQCPNYDTCGG [RPC11] | 3.48 ± 0.13 | 3.15 ± 0.18 | 3.06 ± 0.08 | 3.21 ± 0.093
55 | ESLYEPNLEPEDLFETI [PUP3] | 3.27 ± 0.12 | 3.09 ± 0.13 | 2.99 ± 0.11 | 3.01 ± 0.078
56 | IYYDSYIHLAYSRSVDK [SSN2] | 2.71 ± 0.13 | 2.78 ± 0.14 | 2.89 ± 0.11 | 3.26 ± 0.088
